The text below walks through data of patent US20170290877A1.

Non-standard residues stand in square brackets, D forms with d. No end group written: not given here.

This assay concerns the target JNK in primary mouse cortical neurons. Nature of the assay: cell-based or functional assay.

As for [dD][dQ][dS][dR][dP][dV][dQ][dP][dF][dL][dN][dL][dT][dT][dP][dR][dK][dP][dR][dP][dP][dR][dR][dR][dQ][dR][dR][dK][dK][dR]G [D-TAT-IB1(s)], the JNK activation in Aβ42-stressed PKR-/- neurons (immunoblot), XG-102 at 10 µM is -35%; the JNK activity as ratio pJNK/JNK after 1 mM H2O2 (immunoblot), XG-102 at 10 µM (% of controls) is 45; the c-Jun phosphorylation in Aβ42-stressed WT neurons (immunoblot), XG-102 at 10 µM was -74%.
